Reference: patent US20260151494A1 (ARO BIOTHERAPEUTICS, published 2026)

Assays:
[1] = biological target: T1, human CD71 extracellular domain (human, UniProt P02786 89-760); assay: primary ELISA; further: test concentration or dose not given here
T1 construct: also called hCD71; human CD71-ECD

[2] = biological target: T2, apical domain of cynomolgus CD71 (cynomolgus, UniProt A0A2K5X958 189-383); assay: primary ELISA; further: test concentration or dose not given here
T2 construct: domain: apical domain; also called Cyno apical domain

[3] = biological target: T1, human CD71 extracellular domain; assay: primary ELISA, signal ratio to HSA
[4] = biological target: T2, apical domain of cynomolgus CD71; assay: primary ELISA, signal ratio to HSA

T1 sequence (P02786 89-760): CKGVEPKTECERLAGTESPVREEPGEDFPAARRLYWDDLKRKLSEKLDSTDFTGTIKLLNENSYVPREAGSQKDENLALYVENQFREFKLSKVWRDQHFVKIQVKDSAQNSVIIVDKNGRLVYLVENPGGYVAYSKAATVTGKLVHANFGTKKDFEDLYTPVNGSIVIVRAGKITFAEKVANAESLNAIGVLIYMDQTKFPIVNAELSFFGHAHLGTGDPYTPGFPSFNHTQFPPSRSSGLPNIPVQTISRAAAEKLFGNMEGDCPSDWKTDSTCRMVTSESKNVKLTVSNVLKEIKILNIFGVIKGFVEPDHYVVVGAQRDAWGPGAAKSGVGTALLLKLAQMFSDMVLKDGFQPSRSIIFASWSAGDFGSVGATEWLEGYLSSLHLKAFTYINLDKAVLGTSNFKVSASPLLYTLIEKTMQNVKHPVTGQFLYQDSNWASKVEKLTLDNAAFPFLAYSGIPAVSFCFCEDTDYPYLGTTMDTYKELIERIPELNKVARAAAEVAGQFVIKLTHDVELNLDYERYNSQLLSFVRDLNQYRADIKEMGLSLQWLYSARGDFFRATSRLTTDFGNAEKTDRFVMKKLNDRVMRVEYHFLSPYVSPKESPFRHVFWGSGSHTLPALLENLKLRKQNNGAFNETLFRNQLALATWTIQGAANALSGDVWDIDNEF
T2 sequence (A0A2K5X958 entry or part of it): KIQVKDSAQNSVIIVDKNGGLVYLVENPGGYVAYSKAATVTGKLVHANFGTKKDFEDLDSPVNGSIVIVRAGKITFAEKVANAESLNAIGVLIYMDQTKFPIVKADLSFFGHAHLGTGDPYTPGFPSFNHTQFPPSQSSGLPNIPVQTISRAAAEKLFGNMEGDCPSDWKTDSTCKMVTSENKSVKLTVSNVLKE

Binder | RLU [1] [RLU] | RLU [2] [RLU] | hCD71:HSA [3] | Cyno apical domain:HSA [4]
CD71-binding FN3 domain of SEQ ID NO: 193 (designed binder) MSLPAPKNLVVSRVTEDSARLSWTAPDAAFDSFEIGYFENLYLGEAIVLTVPGSERSYDLTGLKPGTEYWVQIGGVKGGNWSEPLSAIFTT | 2.33e+06 | 3.95e+06 | 68 | 116
CD71-binding FN3 domain of SEQ ID NO: 194 (designed binder) MSLPAPKNLVVSRVTEDSARLSWTAPDAAFDSFEIGYFENLYLGEAIVLTVPGSERSYDLTGLKPGTEYPVWIGGVKGGTWSVPLSTIFTT | 2.56e+06 | 3.78e+06 | 52 | 77
CD71-binding FN3 domain of SEQ ID NO: 195 (designed binder) MSLPAPKNLIVSRVTEDSARLSWTAPDAAFDSFEIGYFENLYLGEAIVLTVPGSERSYDLTGLKPGTEYWVQIGGVKGSNWSAPLSAIFTT | 2.88e+06 | 4.2e+06 | 106 | 155
CD71-binding FN3 domain of SEQ ID NO: 199 (designed binder) MSLPAPKNLVVSRVTEDSARLSWTAPDAAFDSFEIGYFENLYLGEAIVLTVPGYERSYDLTGLKPGTEYWVQIGGVKGGNWSAPLSAIFTT | 4.45e+06 | 4.9e+06 | 170 | 187
CD71-binding FN3 domain of SEQ ID NO: 200 (designed binder) MSLPAPKNLVVSRVTEDSARLSWTAPDAAFDSFEIGYFENLYLGEAIVLTVPGSERSYDLTGLKPGTEYWVQIGGVKGSNWSAPLSAIFTT | 3.49e+06 | 4.72e+06 | 127 | 172
CD71-binding FN3 domain of SEQ ID NO: 201 (designed binder) MSLPAPKNLVVSRVTEDSARLSWTAPDAAFDSFEIAYFEGTFHGEAIVLFVPGSERSYDLTGLKPGTEYAVWIGGVKGGDYSRPLSAAFTT | 1.59e+06 | 3.01e+06 | 40 | 76
CD71-binding FN3 domain of SEQ ID NO: 202 (designed binder) MSLPAPKNLVVSRVTEDSARLSWTAPDAAFDSFEIGYFENLYLGEAIVLTVPGSERSYDLTGLKPGTEYYVHIGGVKGGIWSSPLSAIFTT | 1.11e+06 | 3.51e+06 | 58 | 184
CD71-binding FN3 domain of SEQ ID NO: 203 (designed binder) MSLPAPKNLVVSRVTEDFARLSWTAPDAAFDSFEIAYWEQSYTGEAIVLTVPGSERSYDLTGLKPGTEYFVHIGGVKGGVWSTPLSAIFTT | 2.25e+06 | 4.85e+06 | 168 | 362
CD71-binding FN3 domain of SEQ ID NO: 205 (designed binder) MSLPAPKNLVVSRVTEDSARLSWTAPDAAFDSFEIGYFENLYLGEAIHLFVPGSERSYDLTGLKPGTEYNVTIQGVKGGFPSEPLIANFTT | 1.02e+06 | 4.1e+06 | 53 | 213
CD71-binding FN3 domain of SEQ ID NO: 206 (designed binder) MSLPAPKNLVASRVTEDSARLSWTAPDAAFDSFEIGYFENLYLGEAIVLTVPGSERSYDLTGLKPGTEYWVQIGGVKGGNWSAPLSAIFTT | 3.9e+06 | 5.33e+06 | 49 | 67
CD71-binding FN3 domain of SEQ ID NO: 207 (designed binder) MSLPAPKNLVVSRVTEDSARLSWTAPDAAFDSFEIGYWENAYKGEAIVLTVPGSERSYDLTGLKPGTEYVVFIGGVKGGVWSVPLSAISTT | 3.58e+06 | 4.94e+06 | 22 | 31
CD71-binding FN3 domain of SEQ ID NO: 208 (designed binder) MSLPAPKNLVVSRVTEDSARLSWTAPDAAFDSFFIGYFENLYLGEAIVLTVPGSERSYDLTGLKPGTEYWVQIGGVKGGNWSAPLSAIFTT | 4.06e+06 | 5.45e+06 | 142 | 19
CD71-binding FN3 domain of SEQ ID NO: 209 (designed binder) MSLPAPKNLVVSRVTEDSARLSWTAPDAAFDSFEIAYFERTWFGEAIVLTVPGSERSYDLTGLKPGTEYWVQIGGVKGGDWSRPLSAIFTT | 4.27e+06 | 5.07e+06 | 356 | 423
CD71-binding FN3 domain of SEQ ID NO: 211 (designed binder) MSLPAPKNLVVSRVTEDSARLSWTAPDAAFDSFEIVYAEPVRFGEAIVLTVPGSERSYDLTGLKPGTEYWVQIGGVKGGEWSSLLSAIFTT | 2.02e+06 | 4.67e+06 | 76 | 177
CD71-binding FN3 domain of SEQ ID NO: 212 (designed binder) MSLPAPKNLVVSRVTEDSARLSWTAPDAAFDSFEIGYFENLYLGEAIVLTVPGSERYYDLTGLKPGTEYWVQIGGVKGGNWSAPLSAIFTT | 2.82e+06 | 5.13e+06 | 97 | 176
CD71-binding FN3 domain of SEQ ID NO: 213 (designed binder) MSLPAPKNLVVSRVTEDSARLSWTAPDAAFDSFEIGYFENLYLGEAIVLTVPGSERSYDLTGLKPGTEYWVQIGGAKGGNWSAPLSAIFTT | 2.46e+06 | 4.74e+06 | 130 | 251
CD71-binding FN3 domain of SEQ ID NO: 214 (designed binder) MSLPAPKNLVVSRVTEDSARLSWTAPDAAFDSFEIDYGEYSQAGEAIGLLVPGSERSYDLTGLKPGTEYWVQIGGVKGGNWSAPLSAIFTT | 1.01e+06 | 4.2e+06 | 36 | 148
CD71-binding FN3 domain of SEQ ID NO: 215 (designed binder) MSLPAPKNLVVSRVTEDSARLSWTAPDAAFDSLEIGYFENLYLGEAIVLTVPGSERSYDLTGLKPGTEYWVQIGGVKGGNWSAPLSAIFTT | 3.34e+06 | 4.95e+06 | 48 | 71
CD71-binding FN3 domain of SEQ ID NO: 216 (designed binder) MSLPAPKNLVVSRVTEDSARLSWTAPDAAFDSFEIAYFEQTYTGEAIVLTVPGSERSYDLTGLKPGTEYWVQIGGVKGGTWSAPLSAISTT | 3.37e+06 | 5.04e+06 | 80 | 119
CD71-binding FN3 domain of SEQ ID NO: 217 (designed binder) MSLPAPKNLVVSRVTEDSARLSWTAPDAAFDSFEIAYFEQTYTGEAIVLTVPGSERSYDLTGLKPGTEYWVAIGGVKGGLWSLPLSAIFTT | 2.33e+06 | 3.98e+06 | 43 | 74
CD71-binding FN3 domain of SEQ ID NO: 121 (designed binder) MSLPAPKNLVVSRVTEDSARLSWTAPDAAFDSFFIGYLEPQPPGEAITLYVPGSERSYDLTGLKPGTEYNVTIQGVKGGFPSAPLSAIFTT | 5.42e+06 | 6.22e+06 | 109 | 125
CD71-binding FN3 domain of SEQ ID NO: 123 (designed binder) MSLPAPKNLVVSRVTEDSARLSWTAPDAAFDSFAIRYWELRATGEAIPLSVPGSERSYDLTGLKPGTEYHVAISGVKGGKSSYPLRASFTT | 4.51e+06 | 5.2e+06 | 108 | 125
CD71-binding FN3 domain of SEQ ID NO: 153 (designed binder) MSLPAPKNLVVSRVTEDSARLSWTAPDAAFDSFYIAYAEPRPDGEAIVLAVPGSERSYDLTGLKPGTEYSVLIHGVKGGLLSSPLGADFTT | 4.57e+06 | 4.11e+06 | 141 | 127
CD71-binding FN3 domain of SEQ ID NO: 125 (designed binder) MSLPAPKNLVVSRVTEDSARLSWTAPDAAFDSFYIAYAEPRPDGEAIILLVPGSERSYDLTGLKPGTEYSVLIHGVKGGLLSSPLHAHFTT | 3.64e+06 | 5.09e+06 | 109 | 153
CD71-binding FN3 domain of SEQ ID NO: 165 (designed binder) MSLPAPKNLVVSRVTEDSARLSWTAPDAAFDSFYIAYAEPRPDGEAILLEVPGSERSYDLAGLKPGTEYSVLIHGVKGGLLSSPLGAEFTT | 4.25e+06 | 3.62e+06 | 305 | 259
CD71-binding FN3 domain of SEQ ID NO: 127 (designed binder) MSLPAPKNLVVSRVTEDSARLSWTAPDAAFDSFFIGYLEPQPPGEAITLLVPGSERSYDLTGLKPGTEYNVTIQGVKGGFPSGPLQASFTT | 4.73e+06 | 6.52e+06 | 188 | 259
CD71-binding FN3 domain of SEQ ID NO: 128 (designed binder) MSSLPAPKNLVVSRVTEDSARLSWTAPDAAFDSFEIGYFENLYLGEAIVLTVPGSERSYDLTGLKPGTEYWVQIGGVKGGNWSAPLSAIFTT | 4.62e+06 | 5.56e+06 | 215 | 259
CD71-binding FN3 domain of SEQ ID NO: 185 (designed binder) MGSLPAPKNLVVSRVTEDSARLSWTAPDAAFDSFEISYWEHTFNGEAIILFVPGSERSYDLTGLKPGTEYWVQIGGVKGGNWSAPLSAIFTT | 2.26e+06 | 4.08e+06 | 148 | 267
CD71-binding FN3 domain of SEQ ID NO: 129 (designed binder) MGGSLPAPKNLVVSRVTEDSARLSWTAPDAAFDSFEIGYFENLYLGEAIVLTVPGSERSYDLTGLKPGTEYWVQIGGVKGGNWSAPLSAIFTT | 2.49e+06 | 4.89e+06 | 159 | 313
